Measurements as given in US7662388B2, “Endogenous peptide and active subfragments thereof” (Innoventus Project AB, priority 2003, dated 2010).

What was measured:
primary BCE cells = experiment: comparative study pep2/pep3, chemotaxis; type: cell-based, bovine; conditions: 50 ng/ml peptide, FGF-2 10 ng/ml, Zn2+-acetate; listed as SEQ.ID.NO:4
Description: Primary endothelial cells were starved over night in 0.5% normal calf serum. A migration assay was performed in a modified Boyden chamber as described earlier (Auerbach et al., 1991) using micropore polycarbonate filters (8 μm thick, 8 μm pore) coated with type-1 collagen solution at 100 μg/ml (Vitrogen 100, Collagen Corp). Cells were trypsinized and resuspended at 7.5×10^5 cells/ml in Dulbecco's modified essential medium (Invitrogen) containing 0.25% BSA and Trasylol at 1000 KIE. The cell suspension was added in the upper chamber and FGF-2 (10 ng/ml), HRGP (100 ng/ml), peptide 2 or 3 (50 ng/ml) in medium containing 0.25% BSA were added to the lower chamber. The peptides were dissolved in PBS containing a 10-fold molar excess (Zn:peptide) of Zn^2+-acetate. After 5 h at 37° C., cells that had migrated through the filter were stained with Giemsa and counted using the Easy Image Analysis software. All samples were analyzed in at least six wells for each treatment. Results of the study are illustrated in FIG. 7.

[1] = tested on: chicken chorioallantoic membrane (CAM); experiment: chicken chorioallantoic membrane (CAM) angiogenesis assay; type: in vivo
Description: The effect of HRGP on anglogenesis was tested in the chicken chorioallantoic membrane (CAM) assay.
The conditions for the chorioallantoic membrane (CAM) assay followed essentially a previously described procedure (Friedlander et al (1995), Dixelius et al, (2000)). FGF-2 (Boehringer Mannheim) and VEGF-A (Peprotech) was used at 0.2 mg per filter and purified pHRGP or rHRGP at 3 mg per filter. The treated CAM's were inspected in a light microscope and the score, from 0 (low) to 3 (high) was based on the number of vessel branch points. Average values for 5-6 embryos were recorded.
A filter disc soaked in vehicle or growth factor, with or without HRGP, was placed on top of the CAM in the vicinity of a large vessel and incubated for three days. Treatment of the CAM with growth factors, such as FGF-2, stimulated angiogenesis (FIG. 1C; Table 1).

T241 fibrosarcoma cells = experiment: fibrosarcoma tumour growth in mice (HRGP); type: in vivo; conditions: 4 mg/kg/day s.c. daily, control PBS, 11 days
Description: Animal work was carried out at the local animal facility and was approved by the Uppsala University board of animal experimentation and thus performed according to the UKCCCR guidelines for the welfare of animals in experimental neoplasia (Workman et al (1988)). The mice were anesthetized with isoflurane (Forene; Abbott) during all manipulations. Female, 5 week old, C57BL6/1 mice (Mollegard/Bomhultgard, Denmark) were injected with 0.5×10^6 T241 fibrosarcoma cells subcutaneously (s.c.) into the left flank. Animals carrying palpable tumours were randomized (n=7-10 animals/treatment group) and received treatment with vehicle (PBS), 4 mg/kg/day of pHRGP or 5 mg/kg/day of human IgG or His-HRGP, given as daily subcutaneous injections in the right flank. The tumours were measured with a caliper once a day, in a blind procedure, and volumes were calculated by the formula […]. When the tumours reached the upper limit of 2 cm^3, the mice were sacrificed. Three animals in each group were perfused with 4% paraformaldehyde in PBS pH 7.4. Tumours were embedded in paraffin according to standard histological procedures and sectioned at […] thickness.
C57/bl6 mice were inoculated subcutaneously with T241 fibrosarcoma cells on their left flank and when the tumours were palpable (after 4-6 days), a daily treatment was initiated with HRGP or control (PBS; FIG. 2A, or human IgG; FIG. 2B). Endostatin was included in one study for comparison (FIG. 2B). The treatment was given as subcutaneous injections in the right flank until the size of the control tumours reached the upper limit of […] (11 days; FIG. 2A, 14 days; FIG. 2B). Injections with both pHRGP (4 mg/kg/day) and His-HRGP (5 mg/kg/day) led to a drastic reduction in tumour growth and at the time of sacrifice, the size of the tumours was reduced by 67% (FIG. 2A) and 61% (FIG. 2B) respectively, compared to control-treated animals. Endostatin treatment (25 mg/kg/day) lacked significant inhibitory effect on tumour growth in this model (32% decrease).

| Molecule | FGF-2-induced chemotaxis of primary BCE cells (primary BCE cells) | growth factor-induced CAM angiogenesis (newly formed vessels) ([1]; FGF-2 or VEGF-A 0.2 mg per filter, HRGP 3 mg per filter, three days) | effect on pre-established vessels of the CAM ([1]; FGF-2 or VEGF-A together with pHRGP, 3 mg per filter) | reduction of tumour size compared to control-treated animals at sacrifice (T241 fibrosarcoma cells) |
| --- | --- | --- | --- | --- |
| Pep3: 25 amino acid subfragment of the central region, amino acids 365-389 of mature human HRGP, described in WO02/064621 (GHHPHGHHPHGHHPHGHHPHGHHPH; listed as Homo sapiens) [reference compound] | not to be active for inhibiting angiogenesis | – | – | – |
| pHRGP: HRGP purified from human plasma (protein) VSPTDCSAVEPEAEKALDLINKRRRDGYLFQLLRIADAHLDRVENTTVYYLVLDVQESDCSVLSRKYWNDCEPPDSRRPSEIVIGQCKVIATRHSHESQDLRVIDFNCTTSSVSSALANTKDSPVLIDFFEDTERYRKQANKALEKYKEENDDFASFRVDRIERVARVRGGEGTGYFVDFSVRNCPRHHFPRHPNVFGFCRADLFYDVEALDLESPKNLVINCEVFDPQEHENINGVPPHLGHPFHWGGHERSSTTKPPFKPHGSRDHHHPHKPHEHGPPPPPDERDHSHGPPLPQGPPPLLPMSCSSCQHATFGTNGAQRHSHNNNSSDLHPHKHHSHEQHPHGHHPHAHHPHEHDTHRQHPHGHHPHGHHPHGHHPHGHHPHGHHPHCHDFQDYGPCDPPPHNQGHCCHGHGPPPGHLRRRGPGKGPRPFHCRQIGSVYRLPPLRKGEVLPLPEANFPSFPLPHHKHPLKPDNQPFPQSVSESCPGKFKSGFPQVSMFFTHTFPK | – | efficient suppression of newly formed vessels | remained unaffected | 67% |
